Data taken from patent publication US20260265800A1, “NEW FUCOSYLTRANSFERASES FOR IN VIVO SYNTHESIS OF LNFP-III” (DSM IP Assets B.V., priority 2022, published 2026).
Several values for one entry are separate records, joined by “and”; a condition that tells them apart may be missing. Equal entries are not always repeated.

B1: Med1: α-1,3-fucosyltransferase from Mediterranea sp. An20, GenBank WP_087337236.1, SEQ ID NO: 4 (protein, listed as Mediterranea sp.)
chain: MRKILILFYNKLWGVSWENEACASIPDGFELTDDRSRMAEADAVVFHLPDLARCMDGEEIEKRDGQLWVTWNLECDDNYPWVEAPEIRDLFDLRIGYRQQDDVWYPYFSFIRAEAFTRLPPRRPPLDKACLFVSSPFNRSHRFEFLRELMRHTEVDSFGRMLHNKDLPADEGRKTLMEKIADYKFVIGVENALARDYVTEKFFQPLLAGTVPVYRGAPNVEEFAPGRHCFVDARAFRSPADLAGFMNRCYEHPALYDELTAWRTQPLQPGFVQKLEQVKEHPFVRLCRVVEEKIRRIEYKIT
B2: CafD: prior art α-1,3-fucosyltransferase from Helicobacter hepaticus ATCC 51449, GenBank AAP76669.1, SEQ ID NO: 41 (protein, listed as Helicobacter hepaticus)
chain: MKDDLVILHPDGGIASQIAFVALGLAFEQKGAKVKYDLSWFAEGAKGFWNPSNGYDKVYDITWDISKAFPALHIEIANEEEIERYKSKYLIDNDRVIDYAPPLYCYGYKGRIFHYLYAPFFAQSFAPKEAQDSHTPFAALLQEIESSPSPCGVHIRRGDLSQPHIVYGNPTSNEYFAKSIELMCLLHPQSSFYLFSDDLAFVKEQIVPLLKGKTYRICDVNNPSQGYLDLYLLSRCRNIIGSQGSMGEFAKVLSPHNPLLITPRYRNIFKEVENVMCVNWGESVQHPPLVCSAPPPLVSQLKRNAPLNSRLYKEKDNASA
B3: Camp1: α-1,3-fucosyltransferase from Campylobacter sp., GenBank MBP3676691.1, SEQ ID NO: 1 (protein, listed as Campylobacter sp.)
chain: MRKDLVIIRVDGGIASQIAFVALGLEFESRGYKVKYDLSWFDEFGNGFYNEQNGYDRSYNITFDIPKAFPDIKCEIASRDEIEIYRKKYFVDNEEVIELKPPLYVGGYLGRHFDFKYRDFFAKHFNPKEIQESDSECKILLDNILSNHSCGVHIRMGDLSKEHVVYGKPLSVEYFLKNIQLVLQIEPKSKFYFFSDDLEWVKKKVIPSLHSIEYEICNVNSVEKGYLDLYLLSRCKIIIASQGSMGKYAKMLALDSKTLLITPNKNAPMENMMMVNWADSYESFEEKQIQKPLSWRNKIRLKIYKKLRNKLLQKGIL
B4: Hacin2: α-1,3-fucosyltransferase from Helicobacter acinonychis, GenBank WP_104687422.1, SEQ ID NO: 5 (protein, listed as Helicobacter acinonychis)
chain: MFQPLLDAYTDSAYSDASDHKPPLNIAIANGWGGTKGFEASVLYFILSWRYKIALHENPNKPADLVFSNPLGQARKILSYQNTKRVFYTGENEVPNFNLFDYAIGFDGLDFKERYLRMPLYYASLHDKAQSVNDTTAPYTLKSDSLYALKKPAHCFKEDHPKLCSVVKGESDPFKRGFASFVAGNANAPMRNAFCEALNSVEPVTGGGAVKNTLGYNVTNKSEFLSQYKFNLCFENAQGYGYVTEKIIDAYFSHTIPIYWGSPSVAQDFNPKSFVNVHDFKDFDGAIDYIRYLHTHENAYLDMLYENPLNVIDGKACFYQDLSFKKILDFFKTILENDTIYHNNPFVFDRDLHEPLVSIDNLRADLLLLKDNYDGLKTDYDGLKTDYDGLKTDYDGLKTDYDGLKTDYDGLKTDYDGLKTDYDHLFKSALPLLELSQTTSFKIYHKIYQKTLPLLRMARKLVKK
B5: FutB: prior art α-1,3-fucosyltransferase from Helicobacter pylori, GenBank WP_000487430.1, SEQ ID NO: 6 (protein, listed as Helicobacter pylori)
chain: MFQPLLDAFIESASIEKMVSKSPPPPLKIAVANWWGDEEIKEFKKSVLYFILSQRYAITLHQNPNESSDLVFSNPLGAARKILSYQNTKRVFYTGENESPNFNLFDYAIGFDELDFNDRYLRMPLYYAHLHYEAELVNDTTAPYKLKDNSLYALKKPSHHFKENHPNLCAVVNDESDLLKRGFASFVASNANAPMRNAFYDALNSIEPVTGGGSVRNTLGYKVGNKSEFLSQYKFNLCFENSQGYGYVTEKILDAYFSHTIPIYWGSPSVAKDFNPKSFVNVHDFNNFDEAIDYIKYLHTHPNAYLDMLYENPLNTLDGKAYFYQDLSFKKILDFFKTILENDTIYHNNPFIFYRDLHEPLISIDDLRVNYDDLRVNYDDLRVNYDDLRVNYDDLRVNYDDLRVNYDDLRVNYDDLRVNYDDLRVNYDDLRVNYDRLLQNASPLLELSQNTTFKIYRKAYQKSLPLLRTIRRWVKK
B6: Hpull1: α-1,3-fucosyltransferase from Helicobacter pullorum, GenBank WP_065831246.1, SEQ ID NO: 3 (protein, listed as Helicobacter pullorum)
chain: MRKDLVIIRVDGGIASQISFVALGLEFESRGYKVKYDLSWFDEFGNGICNEQNGYDRSYNIVFDIPKAFPDIKCEIASRDEIEIYRKKYFVDNEEVIELKPPLYVGGYLGRHFNFKYRDFFAKHFNPKEIQESDSECKILLDNILSNHSCGVHIRRGDLSKEHVVYGKPLSVEYFLKNIQLVLQIEPKSKFYFFGDDLEWVKKKVIPSLNSIEYEICNVNSVEKGYLDLYLLSRCKIIIASQGSMGKFAKMLASDTETLLIAPNKNAPMENMIMVNWVDSYESSGEKQIQKPLSWRNKIRLKIYKKFRNKLLQKGIL
B7: FucT109: prior art α-1,3-fucosyltransferase from Bacteroides fragilis ATCC 25285, GenBank CAH09151.1, SEQ ID NO: 42 (protein, listed as Bacteroides fragilis)
chain: MCDCLSIILLVKMKKIYLKFVDFWDGFDTISNFIVDALSIQYEVVLSNEPDYLFYSCFGTSHLEYDCIKIMFIGENIVPDFNVCDYAIGFNYIDFGDRYLRLPLYAIYDGFSNLQNKKIDVNKALDRKFCSIVVSNNKWADPIRETFFKLLSSYKKVDSGGRAWNNIGGPVDNKLDFISQYKFNIAFENSRVLGYTTEKIMEPMQVNSIPVYWGNPLVGKDFNVDSFVNAHDFDSLERLVEYIIELDSSKDKYLEMLEKPWLLDKTYLDWKQLLLNFINNIMMKSYKDAKYLVNYGHAGKYRNEQRFWGRCERKFKLQRIIEYYSQLFDRK

Tested on: LNnT
Assay: Deep well assay: HMO profile of LNnT-producing strains expressing α-1,3-fucosyltransferases (HPLC)
Type: cell-based, Escherichia coli
Details: for LNFP-III, % of total HMO molar (mM) content produced by each strain: lactose as substrate, FT copy nr as in table 7 (enzyme names in text: single copy)
Description: Deep Well Assays in the current examples were performed as originally described to Lv et al (Bioprocess Biosyst Eng 20 (2016) 39:1737-1747) and optimized for the purposes of the current invention. More specifically, the strains disclosed in the present example were screened in 96 deep well plates using a 4-day protocol. During the first 24 hours, precultures were grown to high densities (OD600 up to 5) and subsequently transferred to a medium that allowed induction of gene expression and product formation.
More specifically, during day 1, fresh precultures were prepared using a basal minimal medium (BMM) (pH 7.0) supplemented with magnesium sulphate (0.12 g/L), thiamine (0.004 g/L) and glucose (5.5 g/L). Basal Minimal medium had the following composition: NaOH (1 g/L), KOH (2.5 g/L), KHzPO4 (7 g/L), NH&HzPO4 (7 g/L), Citric acid (0.5 g/l), trace mineral solution (5 mL/L). The trace mineral stock solution contained; ZnSO~*7H~O 0.82 g/L, Citric acid 20 g/L, Mn$04*H&O 0.98 g/L, FeSO4*7H&O 3.925 g/L, CuSO4*5H~O 0.2 g/L. The pH of the Basal Minimal Medium was adjusted to 7.0 with 5 N NaOH and autoclaved. The precultures were incubated for 24 hours at 34° C. and 1000 rpm shaking and then further transferred to 0.75 ml of a new BMM (pH 7,5) to start the main culture. The new BMM was supplemented with magnesium sulphate (0.12 g/L), thiamine (0.02 g/L), a bolus of glucose solution (0.1-0.15 g/L) and a bolus of lactose solution (5-20 g/L) Moreover, a 20% stock solution of sucrose (40-45 g/L) or maltodextrin (19-20 g/L) was provided as carbon source, accompanied by the addition of a specific hydrolytic enzyme, sucrose hydrolase or glycoamylase, respectively, so that glucose was released at a rate suitable for carbon-limited growth and similar to that of a typical fed-batch fermentation process. The main cultures were incubated for 72 hours at 28° C. and 1000 rpm shaking. For the analysis of total broth, the 96 well plates were boiled at 100° C., subsequently centrifuged, and finally the supernatants were analysed by HPLC.
Genetically modified cells expressing individual α-1,3-fucosyltransferase enzymes were screened for their ability to produce the fucosylated HMO LNFP-III.
Genetically modified strains expressing the six individual α-1,3-fucosyltransferases (table 5) were generated as described in the “Method” section. The cells were screened in the deep well assay setup as described in the “Method” section.
The molar content of individual HMOs produced by the strains was measured by HPLC.
The results of the LNFP-III producing cells are shown in table 7 as the fraction of the total molar HMO content (in percentage, %) produced by each strain.

[1] = FT copy nr as in table 7, listed as FutT109

| Molecule | LNDFH-III, % of total HMO molar (mM) content produced by each strain (FT copy nr as in table 7) | LNnT, % of total HMO molar (mM) content produced by each strain (FT copy nr as in table 7) [%] | pLNnH, % of total HMO molar (mM) content produced by each strain (FT copy nr as in table 7) [%] | LNFP-III, % of total HMO molar (mM) content produced by each strain | other results |
| --- | --- | --- | --- | --- | --- |
| B1 | do not produce any |  |  |  |  |
| B2 | 0.0 ± 0.0% | 81.9 ± 1.3 | 18.1 ± 1.3 | 0.0 ± 0.0% | 3-FL, % of total HMO molar (mM) content produced by each strain (FT copy nr as in table 7): 0.0 ± 0.0%; LNFP-VI, % of total HMO molar (mM) content produced by each strain (FT copy nr as in table 7): 0.0 ± 0.0%; production of fucosylated HMOs (fucosylation of LNnT or lactose) (single copy): does not produce any fucosylated HMOs |
| B3 | do not produce any |  |  |  |  |
| B4 | do not produce any |  |  |  |  |
| B5 | 0.0 ± 0.0% | 78.9 ± 0.4 | 13.2 ± 0.2 | 6% and 6.2 ± 0.5% |  |
| B6 | do not produce any |  |  |  |  |
| B7 |  | 28.7 ± 1.6 | 0.8 ± 0.7 | 26% | 3-FL, % of total HMO molar (mM) content produced by each strain (FT copy nr as in table 7): 2.0 ± 1.8%; LNFP-VI, % of total HMO molar (mM) content produced by each strain (FT copy nr as in table 7): 18%; LNDFH-III, % of total HMO molar (mM) content produced by each strain [1]: 24% and 23.9 ± 1.8%; LNFP-VI, % of total HMO molar (mM) content produced by each strain [1]: 18.0 ± 2.6%; LNFP-III, % of total HMO molar (mM) content produced by each strain (listed as FutT109): 26.6 ± 3.5% |
